Measurements from US20180194862A1 (AbbVie / Abbott, published 2018).

Key:
dog CD40 = target: T1, dog CD40 (dog, UniProt Q7YRL5 21-194, limits assumed); assay: FACS
T1 sequence (looked up): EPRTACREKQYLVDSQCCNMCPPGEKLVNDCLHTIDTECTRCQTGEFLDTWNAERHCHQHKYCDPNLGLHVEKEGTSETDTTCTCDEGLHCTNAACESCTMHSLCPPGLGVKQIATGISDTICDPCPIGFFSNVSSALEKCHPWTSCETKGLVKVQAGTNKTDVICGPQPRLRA

mouse CD40 = target: T2, mouse CD40 (mouse, UniProt P27512 20-193, limits assumed); assay: FACS
T2 construct: also called murine CD40
T2 sequence (looked up): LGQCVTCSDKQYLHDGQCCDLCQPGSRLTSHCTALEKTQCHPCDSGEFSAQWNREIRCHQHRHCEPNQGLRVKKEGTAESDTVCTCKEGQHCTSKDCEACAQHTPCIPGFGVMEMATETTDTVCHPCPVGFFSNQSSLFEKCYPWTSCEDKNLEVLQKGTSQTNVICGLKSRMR

[1] = target: human CD40 on cells (HEK293 stable transfectants, HEK-Blue CD40 cells, human B cells, monocytic cells, … (human, UniProt P25942 21-277)); assay: cell-based or functional assay
[2] = target: T3, soluble form of the extracellular domain of human CD40 (Creative BioMart) (human, UniProt P25942 21-193); assay: SPR, Ab captured
T3 construct: Bought
Procedure: (§1) CD40 binding kinetics was analyzed by surface plasmon resonance assay with a Biacore T200 instrument (Table 1-5). Briefly, a goat anti-mouse Fc antibody (Pierce) or goat anti-human Fc (Pierce) was immobilized on a CM5 sensor chip, followed by capture of the anti-CD40 antibodies on the test surface. Subsequently, the soluble form of the extracellular domain of human CD40 (Creative BioMart) or cynomolgus (cyno) CD40 (Creative BioMart) was injected, and the binding and dissociation were measured.

[3] = target: T4, soluble form of the extracellular domain of cynomolgus (cyno) CD40 (Creative BioMart) (cynomolgus, UniProt G7PG38 21-193); assay: SPR, Ab captured
T4 construct: extracellular domain; also called Cynomolgus CD40
Procedure: as §1

[4] = target: CD40 (binding assays of Example 4, Table 4-2); assay: antigen binding, format not stated
[5] = target: T5, mouse 4-1BB on HEK293 cells (mouse, UniProt P20334 24-256); assay: FACS, HEK293 mouse 4-1BB
T5 construct: whole, on cells
T5 sequence (looked up): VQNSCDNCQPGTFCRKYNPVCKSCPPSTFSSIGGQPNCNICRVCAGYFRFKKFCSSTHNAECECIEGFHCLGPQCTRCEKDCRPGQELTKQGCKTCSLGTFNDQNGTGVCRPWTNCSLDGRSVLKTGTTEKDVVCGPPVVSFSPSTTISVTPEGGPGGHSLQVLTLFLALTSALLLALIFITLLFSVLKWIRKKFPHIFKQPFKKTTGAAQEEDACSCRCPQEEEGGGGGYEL
Procedure: To determine species specificity and relative binding affinities of the test antibodies, cell lines were generated to exogenously express 4-1BB on the membrane. HEK293 cells were transfected with a plasmid expressing the human, cynomolgus, or mouse 4-1BB proteins. Stable, high expressing populations were sorted on the MoFlo sorter (Beckman) and maintained in DMEM, 10% fetal bovine serum, containing 500 μg/mL G418. For the assay, cells were dissociated with trypsin, resuspended at 5×10⁶ cells/mL and transferred to the 500 μL polypropylene plate (Nunc) at 50 μL/well (250,000 cells/well). […] Cells were washed twice with 250 μL/PBS (Hyclone) per well. PE-labelled detection antibodies were added at 1:250 dilution of stock, 50 μL/well, and incubated for 20 minutes at room temperature. The following detection antibodies were used: Goat anti-Rat IgG-PE (Southern Biotech), Goat anti-Mouse IgG-PE (Southern Biotech) or Goat anti-Human IgG-PE (Southern Biotech). Cells were washed once and fixed with PBS containing 1% Formaldehyde. Plate was analyzed for fluorescence on the FACSCalibur (Becton Dickinson).

human 4-1BB = target: T6, human 4-1BB (human, UniProt Q07011 24-186); assay: SPR (Biacore)
T6 construct: SPR (Biacore) analyte; also called hu4-1BB

T3 sequence (P25942 21-193 limits assumed): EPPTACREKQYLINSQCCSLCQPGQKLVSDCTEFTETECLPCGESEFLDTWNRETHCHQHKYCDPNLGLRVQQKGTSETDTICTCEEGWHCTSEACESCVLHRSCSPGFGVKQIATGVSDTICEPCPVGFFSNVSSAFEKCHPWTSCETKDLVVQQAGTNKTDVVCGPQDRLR
Chain of CD40 (binding assays of Example 4, Table 4-2) (P25942 21-277): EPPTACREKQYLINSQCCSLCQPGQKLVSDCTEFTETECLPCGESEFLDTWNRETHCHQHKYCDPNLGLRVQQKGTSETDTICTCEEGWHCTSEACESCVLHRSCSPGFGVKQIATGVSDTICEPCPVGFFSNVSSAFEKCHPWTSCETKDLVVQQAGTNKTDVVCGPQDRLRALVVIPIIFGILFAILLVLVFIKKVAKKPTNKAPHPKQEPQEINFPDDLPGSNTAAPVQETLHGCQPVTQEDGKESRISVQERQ
Chain of human CD40 on cells (HEK293 stable transfectants, HEK-Blue CD40 cells, human B cells, monocytic cells, … (P25942 21-277 limits assumed): as the sequence (P25942 21-277) above

B1: huAb9-5 (antibody, human IgG1, kappa)
heavy: not shown
light: DAVMTQTPLSLSVTPGQPASISCRSSQSLENTNGNTFLNWYLQKPGQSPQLLIYRVSNRFSGVPDRFSGSGSGTDFTLKISRVEAEDVGVYYCLQVTHVPFTFGQGTKLEIKRTVAAPSVFIFPPSDEQLKSGTASVVCLLNNFYPREAKVQWKVDNALQSGNSQESVTEQDSKDSTYSLSSTLTLSKADYEKHKVYACEVTHQGLSSPVTKSFNRGEC
notes: human IgG1, kappa
B1 was tested, and the binding result (dog CD40) was “no binding”, the binding result (mouse CD40) was “no binding” and the “NF-κB activation EC50, HEK293 CD40 NFκB reporter cells” value [1] was 1.13 µg/mL. For the same binder, the Kd [2] was 15 nM, the koff [2] was 0.026 s⁻¹ and the kon [2] was 1.7e+06 M⁻¹ s⁻¹. For the same binder, the Kd [3] was 13 nM, the koff [3] was 0.024 s⁻¹ and the kon [3] was 1.8e+06 M⁻¹ s⁻¹. The EC50 [4] was 0.2 µg/mL.

B2: Hu106mPSMA-3 (bispecific antibody)
chain: EVQLVQSGAEVKKPGSSVKVSCKASGYTFTSYYIYWVRQAPGQGLEWIGNIWPGNGGTFYGEKFMGRATFTADTSTSTAYMELSSLRSEDTAVYYCARRPDYSGDDYFDYWGQGTLVTVSSGGGGSGGGGSGGGGSGGGGSGGGGSGGGGSNVMLTQPHSVSESPGKTVTISCKLNSGNIGSYYVHWYQQRPGSSPTTMIYRDDKRPDGVPDRFSGSIDSSSNSASLTISGLKTEDEADYYCHSYDSTITPVFGGGTKLTVLGQVPRDSGCKPCICTVPEVSSVFIFPPKPKDVLMITLTPKVTCVVVDISKDDPEVQFSWFVDDVEVHTAQTQPREEQFNSTFRSVSELPIMHQDWLNGKEFKCRVNSAAFPAPIEKTISKTKGRPKAPQVYTIPPPKEQMAKDKVSLTCMITDFFPEDITVEWQWNGQPAENYKNTQPIMDTDGSYFVYSKLNVQKSNWEAGNTFTCSVLHEGLHNHHTEKSLSHSPGKGGGGSGGGSGGGSGGGGSEVKLVESEGGLVQPGSSMKLSCTASGFTFSDYYMAWVRQVPEKGLEWVANINYDGTTTYYLDSLKSRFIISRDNSKNILYLQMSSLKSEDTATYYCARVLDGYYGYFDYWGQGTTLSVSSGGGGSGGGGSGGGGSGGGGSGGGGSGGGGSQIVLTQSPAIMSASPGEKVTISCSASSSVSYMYWYQQKPGSSPKPWIYRTYNLASGVPARFSGSGSGTSYSLTISSMEAEDAATYYCQQSHTYPPTFGGGTKLEIKR
notes: contains T252M
B2 was tested, and the EC50 [5] was 1.1 nM.

B3: Hu106mPSMA-4 (bispecific antibody)
chain: EVQLVQSGAEVKKPGSSVKVSCKASGYTFTSYYIYWVRQAPGQGLEWIGNIWPGNGGTFYGEKFMGRATFTADTSTSTAYMELSSLRSEDTAVYYCARRPDYSGDDYFDYWGQGTLVTVSSGGGGSGGGGSGGGGSGGGGSGGGGSGGGGSNVMLTQPHSVSESPGKTVTISCKLNSGNIGSYYVHWYQQRPGSSPTTMIYRDDKRPDGVPDRFSGSIDSSSNSASLTISGLKTEDEADYYCHSYDSTITPVFGGGTKLTVLGQVPRDSGCKPCICTVPEVSSVFIFPPKPKDVLMITLTPKVTCVVVDISKDDPEVQFSWFVDDVEVHTAQTQPREEQFASTFRSVSELPIMHQDWLNGKEFKCRVNSAAFPAPIEKTISKTKGRPKAPQVYTIPPPKEQMAKDKVSLTCMITDFFPEDITVEWQWNGQPAENYKNTQPIMDTDGSYFVYSKLNVQKSNWEAGNTFTCSVLHEGLHNHHTEKSLSHSPGKGGGGSGGGSGGGSGGGGSEVKLVESEGGLVQPGSSMKLSCTASGFTFSDYYMAWVRQVPEKGLEWVANINYDGTTTYYLDSLKSRFIISRDNSKNILYLQMSSLKSEDTATYYCARVLDGYYGYFDYWGQGTTLSVSSGGGGSGGGGSGGGGSGGGGSGGGGSGGGGSQIVLTQSPAIMSASPGEKVTISCSASSSVSYMYWYQQKPGSSPKPWIYRTYNLASGVPARFSGSGSGTSYSLTISSMEAEDAATYYCQQSHTYPPTFGGGTKLEIKR
notes: contains T252M and N297A
B3 showed an EC50 [5] of 1 nM.

B4: hu106-1 mIgG1 (antibody, V domains shown)
VH: EVQLVQSGAEVKKPGSSVKVSCKASGYTFTSYYIYWVRQAPGQGLEWIGNIWPGNGGTFYGEKFMGRATFTADTSTSTAYMELSSLRSEDTAVYYCARRPDYSGDDYFDYWGQGTLVTVSS
VL: NVMLTQPHSVSESPGKTVTISCKLNSGNIGSYYVHWYQQRPGSSPTTMIYRDDKRPDGVPDRFSGSIDSSSNSASLTISGLKTEDEADYYCHSYDSTITPVFGGGTKLTVL
notes: also called hu106-1 with the muIgG1 constant region
B4 was tested, and the EC50 [5] was 0.69 nM.

B5: hu106-1 T252M mIgG1 (antibody, V domains shown)
VH: EVQLVQSGAEVKKPGSSVKVSCKASGYTFTSYYIYWVRQAPGQGLEWIGNIWPGNGGTFYGEKFMGRATFTADTSTSTAYMELSSLRSEDTAVYYCARRPDYSGDDYFDYWGQGTLVTVSS
VL: NVMLTQPHSVSESPGKTVTISCKLNSGNIGSYYVHWYQQRPGSSPTTMIYRDDKRPDGVPDRFSGSIDSSSNSASLTISGLKTEDEADYYCHSYDSTITPVFGGGTKLTVL
notes: also called hu106-1 mIgG1 T252M
Work on B5 yielded an EC50 [5] of 0.95 nM.

B6: huAb8-1 (antibody, human IgG1, V domains shown)
VH: EVQLVQSGAEVKKPGSSVKVSCKASGYTFTDYYINWVRQAPGQGLEWIGWIFPGSGSVYCNEQFKGRATLTVDRSTSTAYMELSSLRSEDTAVYFCASSLGKFAYWGQGTLVTVSS
VL: DIQMTQSPSSLSASVGDRVTITCKASQSVVTAVAWYQQKPGKSPKLLIYSASNRYTGVPSRFSGSGSGTDFTLTISSLQPEDFATYFCQQYSSYPYTFGGGTKVEIK
notes: human IgG1, kappa
For B6, the binding result (dog CD40) was “no binding”, the binding result (mouse CD40) was “no binding” and the “NF-κB activation EC50, HEK293 CD40 NFκB reporter cells” value [1] was 0.14 µg/mL. For the same binder, the Kd [2] was 3 nM, the koff [2] was 0.0023 s⁻¹ and the kon [2] was 770000 M⁻¹ s⁻¹. For the same binder, the Kd [3] was 7.1 nM, the koff [3] was 0.0071 s⁻¹ and the kon [3] was 1e+06 M⁻¹ s⁻¹. It also gave an EC50 [4] of 0.4 µg/mL.

B7: TABBY10-mIgG1 (antibody, V domains shown)
VH: QIQLVQSGPELKKPGETVKISCKASGYTFTTYGMSWVKQAPGKGLKWMGWINTYSGVPTYADDFKGRFAFSLETSASTAYLQINNLKNEDTATYFCARGNDGNYYGWFAHWGQGTLVTVSA
VL: DIQMTQSPSSLSASLGGKVTITCKASQDIHNYISWYQHKPGKGPRLVIHYTSTLQPGIPSRFSGSGSGRDYSFSISNLEPEDIATYYCLQYDNLYTFGGGTKLEIK
notes: mouse IgG1
For B7, the Kd (human 4-1BB) was 3.1 nM.

B8: TABBY5-mIgG2b (antibody, V domains shown)
VH: EVQLQQSGAELVRPGASVKLSCTASGFNIKDYYMHWVKQRPEQGLEWIGRIDPEDGDTEYVPKFQGKATMTADTSSNTAYLQLSSLTSEDTAVYYCTPYSNYVYWYFDVWGTGTTVTVSS
VL: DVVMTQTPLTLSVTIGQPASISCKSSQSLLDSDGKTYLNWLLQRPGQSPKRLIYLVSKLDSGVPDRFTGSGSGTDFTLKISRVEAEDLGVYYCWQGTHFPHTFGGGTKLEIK
notes: mouse IgG2b
Work on B8 yielded a Kd (human 4-1BB) of 0.3 nM.

B9: TABBY6-mIgG1 (antibody, V domains shown)
VH: EVQLQQSGAELVRPGASVKLSCTASGFNIKDYYMHWVKQRPEQGLEWIGRIDPEDGDTEYAPKFQGKATMTADTSSNTAYLQLSTLTSEDTAVYYCTPYSNYVYWYFDVWGTGTTVTVSS
VL: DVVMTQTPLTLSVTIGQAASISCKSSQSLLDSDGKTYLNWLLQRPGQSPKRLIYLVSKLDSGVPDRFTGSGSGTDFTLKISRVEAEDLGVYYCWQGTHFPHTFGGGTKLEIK
notes: mouse IgG1
B9 showed a Kd (human 4-1BB) of 1.9 nM.
